Results published in patent publication US20240218057A1 (ROCKEFELLER UNIVERSITY, published 2024).

B1: C996 (antibody, V domains shown)
VH: EVQLVESGGGLVQPGGSLRLSCVASGFTSTNYDMHWVRQAPGRGLQWVSSIGTAGDTYYPGSVRGRFTISRENAKNSLDLQMNSLRVGDTAVYYCARGQRGYYDRSGYYWGWRAFDIWGQGTMVTVSS
VL: SYELTQPPSVSVAPGQTARITCGGNNIGNKSVYWYQQKPGQAPVLVVYDDSGRPSGIPERFSGSNSANTATLTISRVEAGDEADYYCQVWDNNSDQFGGGTKLTVL
notes: IgG; V domains only
B2: C977 (antibody, V domains shown)
VH: EVQLVESGGGLVQPGGSLRLSCAASGFTFSNYDMHWVRQVTGKGLEWVSLIGTAADAYYADSVKGRFTISRENAKNSLYLQINSLRAGDTAVYFCARGDSSGLYTFFDYWGQGTLVTVSS
VL: DIQMTQSPSSLSASVGDRVTITCRASQSVTRYLNWYQLKPGKAPKLLIYAASSLQSGVPSRFSGSGSGTDFTLTISSLQPEDFATYYCQQSYSTLGLTFGGGTKVEI
notes: IgG; V domains only
B3: C979 (antibody, V domains shown)
VH: QVQLVESGGGVVQPGRSLRLSCVASGFTFSNYGMHWVRQAPGKGLEWVAVILYDGSDKYYLDSVKGRFTISRDNSKNTLFLQLNSLRAEDTAVYYCAKEGNGYGYQYAGMDVWGQGTTVTVS
VL: QSALTQPASVSGSPGQSITISCTGTNSDVGGYDYVSWYQQHPGKAPKLIIFEVINRPSGVSNRFSGSKSGNTASLTISGLRAEDEADYYCCSYTTSTTRVFGGGTKLTVL
notes: IgG; V domains only
B4: C981 (antibody, V domains shown)
VH: EVQLVESGGGLVQPGGSLRLSCAASGFTFSNYDMHWVRQVTGNGLEWVAAIGTSGDTYYPDSVKGRFTISRENVKNSLFLQMNSLRAGDTAVYYCARGGSSSWLWYFDLWGRGTLV
VL: DIQMTQSPSSLSASVGDRVTITCRASQSISSHLNWYQQKPGKVPKLLIYAASTLQSGVPSRFSGSGSGTDFTLTISSLQPEDFATYYCQQSYSMPPVTFGQGTRLEIK
notes: IgG; V domains only
B5: C982 (antibody, V domains shown)
VH: EVQLVESGGGLVQPGGSLRLSCAASGFTFSNYDMHWVRQPTGGGLEWVSAIGTAGDTYYLASVKGRFTISRENAKNSLSLQMNSLRAGDTAVYYCVRGDTLVQGVIKAYYYYFMDVWGQGITVTVSS
VL: DIQMTQSPSSLSASVGDRVTITCRASQNISRYLNWYQQKPGKAPRLLIYAASTLQSGVPSRFSASGSGTDFTLTITNLQPEDFAVYYCQQTYVMPPYTLAQGTKLEIK
notes: IgG; V domains only
B6: C983 (antibody, V domains shown)
VH: QVQLVESGGGVVRPGRSLRLSCAASGFTFSKYGMHWVRQAPGKGLECVASIAYDGSDDSYADSVKGRFIISRDNSKNTLYLQMNSLRAADTAVYYCAKVLGSYCSASSCHGQRPDYWGQGTLVTVSS
VL: DIQMTQSPSSLSAYVGDRVTITCQASQDISNHLNWYQQKPGKAPNLLIYDASNLETGVPSRFSGSGSGTDFSFTISSLQPEDIATYYCQQYDNVPPWTFGQGTKVEIK
notes: IgG; V domains only
B7: C984 (antibody, V domains shown)
VH: QVQLVQSGTEVKKPGDSVQVSCKTSGYSFTGYYIHWVRQAPGQGLEWMGRINPNSGGTNYAQKFQGRVIMTRDTSITTAFMELTRLRYDDTAVYFCAREPIEGVIGGMIVNYYYMDVWGRGTTVTVSS
VL: QSALTQPASVSGSPGQSITISCTGTSSDVGGYYYVSWYQQHPGKAPKLMIYDVSSRPSGVSNRFSGSKSGNTASLTISGLQAEDEADYYCSSYTSSNTLVVFGGGTKLTVL
notes: IgG; V domains only
B8: C985 (antibody, V domains shown)
VH: QVQLVQSGAEVKKPGASVKVSCKASGYIFTGYYMHWVRQAPGQGLEWMGRINPNSGGSRYAEKFQGRVTMTRDTSIITAFMELRGLKSDDTAVYYCAREPIEAVPAGIIVNYYYMDVWGNGTTVTVSS
VL: QSALTQPASVSGSPGQSITISCTGTSSDVGGYNYVSWYQQHPGKAPKLMIYDVTSRPSGVSDRFSGSKSGTTASLTISGLQAEDEADYYCSSFTSAFTLVVFGGGTKLTVL
notes: IgG; V domains only
B9: C994 (antibody, V domains shown)
VH: QVQLQESGPGLVKPSGTLSLTCAVSGVSISNTNWWNWVRQPPGKGLEWIGEIYHTGSARYNPSLRSRVTISVDKSKNQFSLRLNSATAADTAIYYCARAQTPEFGELLYWGQGALVTVSS
VL: DIQMTQSPSSLSASVGDRVTITCRASQSITDHLNWYQQKPGKAPKLLIYAASSLQTGVPSRFSGSGSETDFTLTISTLQPEDFATYYCQQSYGPPTYSFGQGTKLEIK
notes: IgG; V domains only
B10: C995 (antibody, V domains shown)
VH: EVQLVESGGGLIQPGRSLRLSCTASGFSVGDYAMSWFRQAPGKGLEWVGFLRNQHYGGTAEYAASVKGRFSISTDASKNIVYLQMDSLKTEDTAVYYCARNDRYIVIVPAEMLYWGQGTLVTVSS
VL: EIVMTQSPATLSVSPGERATLSCRATESVYSNLAWYQQKPGQAPRLLMYDASTRAPGIPARFSGSGSGTEFTLTISSLQSEDFATYYCQQYSNWPPITFGQGTRLEIK
notes: IgG; V domains only
B11: C997 (antibody, V domains shown)
VH: EVQLLESGGGLVQPGGSLRLSCAASGFTFSKDAMSWVRQAPGKGLEWVSTVTGSGTNTYYADSVKGRFTISRDNSNNTLYLQMNSLRAEDTAVYYCANHPLGAAEGYYYYYMDVWGKGTTVTVSS
VL: EIVLTQSPGTLSLSPGERGTLSCRASQRVPSSQLAWYQQKSGQAPRLLIYGASSRASGIPDRFSGSGSGTDFTLNISRLEPEDFAVYYCQQYGSLRALTFGGGTKVEIK
notes: IgG; V domains only
B12: C998 (antibody, V domains shown)
VH: QVQLVQSGAEVKKPGASVKVSCKTSGYTFISYYIHWVRQAPGQGLEWMGIINPDGDNTNYAQKFQGRVTMTRDTSTSTVYMELSSLRFEDTAVYYCARGGAIPALRTAFDIWGQGTMVTVSS
VL: DIQMTQSPSTLSASVGDRVTITCRASQSISNWLAWYQQKPGKAPKLLIYKASSLESGVPSRFSGSGSGTEFTLTISSLQPDDFATYYCQEYNSYYFGQGTKLEIK
notes: IgG; V domains only
B13: C999 (antibody, V domains shown)
VH: QVQLVQSGAEVRRPGASVKVSCKASGYTLTHYYIHWVRQAPGQGLEWVGIINPDGDNTNYAQKFQGRVTMTRDTSTSTVYMELSSLRSEDTAIFYCARGGAIPALRSAFDIWGQGTMVTVSS
VL: DIQMTQSPSTLSASVGDRVTITCRASQSINNWLAWYQQKPGKAPKLLIYKASTLESGVPSRFSGSGSGTEFTLTISSLQPDDFATYYCQQYNSYFFGQGTKLEIK
notes: IgG; V domains only
B14: C1000 (antibody, V domains shown)
VH: QVQLQESGPGLVKPSQTLSLSCTVSGGSISSDDYYWSWIRQPPGKGLEWIGYIYYSGSTYYNSSLKSRVSISVDTSKNQFSLKLSSVTAADTAVYYCARWKRWLQFLYFDYWGQGTLVTVSS
VL: QSALTQPRSVSGSPGQSVTISCTGTSSDVGGYSFVSWYQQHPGKAPKVLIYDVDKRPSGVPDRLSGSKSGNTASLTISGLQAEDEADYYCCSYAGSYTLIFGGGTKLTVL
notes: IgG; V domains only
B15: C1001 (antibody, V domains shown)
VH: QVQLQESGPGLVKPSQTLSLTCTVSGGSISSGDYYWTWIRQPPGKGLEWIGYIFYSGITYYSPSLKSRLTMSIDTSKSQFSLNLSSVTAADTAVYYCARWKRLLQSLHFDYWGQGILVTVSS
VL: QSALTQPRSVSGSPGQSVTISCTGTSSDVGSYDYVSWYQQHPGKAPKVMIYGVDERPSGVPHRFSGSKSGNTASLTISGLQADDEADYFCCFYAGSYTLLFGGGTKVTVL
notes: IgG; V domains only
B16: C1002 (antibody, V domains shown)
VH: EVQLVESGGGLVQPGGSLRLSCAASEFIVSSNYMTWVRQAPGKGLEWVSIMYPGGSTFYADSVKGRFTISRDNSKNTLYLQINRLRAEDTAVYYCARDIAGRLDYWGQGTLVTVSS
VL: DIQMTQSPSSLSASVGDRVTITCQASQDINNYLNWYQQKPGKAPKLLIYDASNLETGVPSRFSGSGSGTDFSFTISSLQPEDIATYYCQQYDNLSRLTFGGGTKVEIK
notes: IgG; V domains only

These binders were tested against T1, SARS-COV-2 RBD (SARS-COV-2, UniProt P0DTC2 319-539) (assay: ELISA, RBD coated).
T1 construct: also called WT RBD
With B1 the EC50 was 3.07 ng/mL. Binder B2 has an EC50 of 2.13 ng/mL. Work on B3 yielded an EC50 of 2.54 ng/mL. B4 gave an EC50 of 2.12 ng/mL. With B5 the EC50 was 2.56 ng/mL. B6 showed an EC50 of 2.11 ng/mL. B7 was tested, and the EC50 was 2.76 ng/mL. B8 showed an EC50 of 3.67 ng/mL. For B9, the EC50 was 2.09 ng/mL. B10 was tested, and the EC50 was 3.79 ng/mL. B11 showed an EC50 of 3.49 ng/mL. With B12 the EC50 was 2.51 ng/mL. B13 was tested, and the EC50 was 2.68 ng/mL. Work on B14 yielded an EC50 of 3.2 ng/mL. For B15, the EC50 was 3.23 ng/mL. Work on B16 yielded an EC50 of 0.83 ng/mL.
